Measured values published in patent US20230075979A1.

Tests used:
[1] = molecular target: human ACE2 peptidase domain (amino acids 1-615 of human ACE2 with C-terminal His-10 and Avi tags) (human) (UniProt Q9BYF1)
[2] = molecular target: human ACE2 peptidase domain (amino acids 1-615 of human ACE2 with C-terminal His-10 and Avi tags) (human) (UniProt Q9BYF1); assay: biolayer interferometry (Octet RED384); assumed value, not measured

Sequence of UniProt Q9BYF1 (Q9BYF1 18-615 limits assumed): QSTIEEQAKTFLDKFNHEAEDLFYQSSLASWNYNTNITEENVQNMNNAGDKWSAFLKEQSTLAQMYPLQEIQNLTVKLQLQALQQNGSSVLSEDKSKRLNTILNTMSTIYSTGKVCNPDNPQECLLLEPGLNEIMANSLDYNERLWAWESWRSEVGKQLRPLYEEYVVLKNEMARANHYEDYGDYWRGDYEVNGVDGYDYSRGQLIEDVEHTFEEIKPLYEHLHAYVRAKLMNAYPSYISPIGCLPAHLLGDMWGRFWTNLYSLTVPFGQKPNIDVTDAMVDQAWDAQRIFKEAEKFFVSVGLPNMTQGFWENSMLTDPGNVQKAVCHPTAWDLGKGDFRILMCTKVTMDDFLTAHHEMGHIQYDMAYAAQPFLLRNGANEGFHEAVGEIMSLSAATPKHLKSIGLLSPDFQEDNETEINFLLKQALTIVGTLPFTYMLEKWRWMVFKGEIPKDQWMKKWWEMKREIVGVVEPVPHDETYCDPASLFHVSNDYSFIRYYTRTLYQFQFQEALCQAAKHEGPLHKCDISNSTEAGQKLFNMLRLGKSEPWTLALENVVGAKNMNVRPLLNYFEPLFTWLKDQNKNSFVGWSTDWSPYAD

## RBD-foldon trimer (trimerised SARS-CoV-2 spike receptor-binding domain fused to the T4 fibritin fold (other; other documents disagree on this pair)
[1]
  Kd: 5 pM
[2]
  koff: < 1e-06 s⁻¹
